Substitutions are numbered along the chain they refer to.
T1: cynomolgus C5aR_NT-bio peptide (cynomolgus monkey, biotin tag (position not given))
T1 construct: Chemically synthesized linear peptide (Genscript); also called cynomolgus C5aR N-terminal peptide; cynomolgus C5aR peptide
T1 peptide: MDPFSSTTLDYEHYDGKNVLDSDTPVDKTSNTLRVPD

T2: full length human C5aR stably expressed on CHO Flp-In cells (human, UniProt P21730 1-350)
T2 construct: also called human C5aR expressed on CHO cells
T2 sequence: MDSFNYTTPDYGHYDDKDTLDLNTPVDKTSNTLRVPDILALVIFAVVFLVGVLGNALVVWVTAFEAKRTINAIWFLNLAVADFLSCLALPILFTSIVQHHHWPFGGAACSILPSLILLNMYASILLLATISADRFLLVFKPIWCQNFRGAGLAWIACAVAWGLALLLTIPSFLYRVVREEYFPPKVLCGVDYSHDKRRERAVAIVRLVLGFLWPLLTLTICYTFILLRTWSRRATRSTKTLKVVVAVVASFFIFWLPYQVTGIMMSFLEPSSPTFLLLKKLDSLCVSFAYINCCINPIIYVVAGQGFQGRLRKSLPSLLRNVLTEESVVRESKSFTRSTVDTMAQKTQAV

T3: full length cynomolgus C5aR stably expressed on CHO Flp-In cells (cynomolgus monkey (Macaca fascicularis))
T3 chain: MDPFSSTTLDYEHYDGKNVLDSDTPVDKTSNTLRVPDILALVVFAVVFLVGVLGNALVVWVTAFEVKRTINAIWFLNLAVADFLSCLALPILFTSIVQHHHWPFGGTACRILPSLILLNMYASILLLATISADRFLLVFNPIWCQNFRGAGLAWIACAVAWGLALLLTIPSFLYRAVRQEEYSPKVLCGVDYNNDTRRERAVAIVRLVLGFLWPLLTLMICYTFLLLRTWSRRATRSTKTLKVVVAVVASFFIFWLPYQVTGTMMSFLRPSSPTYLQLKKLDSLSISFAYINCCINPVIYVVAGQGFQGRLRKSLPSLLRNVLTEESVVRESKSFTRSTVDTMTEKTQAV

T4: C5aR expressed on purified human neutrophils (human, UniProt P21730 1-350)
T4 construct: whole, on cells; Used here for all assays on primary human cells (purified neutrophils, granulocytes and monocytes in whole blood, monocyte-derived macrophages); also called human C5aR expressed endogenously; C5aR on human granulocytes, monocytes and macrophages
T4 sequence (looked up): T2 sequence

T5: full-length human ChemR23 expressed on CHO Flp-In cells (human, UniProt Q99788 1-373)
T5 construct: also called Chemokine-like receptor 1
T5 sequence: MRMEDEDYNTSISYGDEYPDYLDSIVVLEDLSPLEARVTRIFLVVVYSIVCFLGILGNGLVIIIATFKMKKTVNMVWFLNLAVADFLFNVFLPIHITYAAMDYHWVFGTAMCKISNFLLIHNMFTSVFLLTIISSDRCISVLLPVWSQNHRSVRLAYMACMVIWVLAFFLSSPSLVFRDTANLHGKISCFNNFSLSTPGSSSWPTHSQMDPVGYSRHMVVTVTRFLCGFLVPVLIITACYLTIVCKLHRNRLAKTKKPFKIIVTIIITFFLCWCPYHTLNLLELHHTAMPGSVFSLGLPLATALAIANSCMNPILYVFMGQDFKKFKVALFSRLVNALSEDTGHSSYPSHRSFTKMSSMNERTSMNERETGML

T6: human C5aR_NT-bio peptide (human, biotin tag (position not given))
T6 construct: Chemically synthesized linear peptide (Genscript); also called human C5aR N-terminal peptide; human C5aR peptide
T6 peptide: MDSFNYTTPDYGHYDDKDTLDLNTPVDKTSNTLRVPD

B1: MAB #2 (antibody, human IgG1, lambda)
heavy: EVQLVESGGGLVKPGGSLRLSCAASGFTFSSYAMHWVRQAPGKGLEWVGRIKSVAQGGTTDYAAHVKGRFTISRDDSKNTLYLQMNSLKTEDTAVYYCARVSHSTFDVWGQGTLVTVSSASTKGPSVFPLAPSSKSTSGGTAALGCLVKDYFPEPVTVSWNSGALTSGVHTFPAVLQSSGLYSLSSVVTVPSSSLGTQTYICNVNHKPSNTKVDKRVEPKSCDKTHTCPPCPAPEAEGAPSVFLFPPKPKDTLMISRTPEVTCVVVDVSHEDPEVKFNWYVDGVEVHNAKTKPREEQYNSTYRVVSVLTVLHQDWLNGKEYKCKVSNKALPSSIEKTISKAKGQPREPQVYTLPPSREEMTKNQVSLTCLVKGFYPSDIAVEWESNGQPENNYKTTPPVLDSDGSFFLYSKLTVDKSRWQQGNVFSCSVMHEALHNHYTQKSLSLSPGK
light: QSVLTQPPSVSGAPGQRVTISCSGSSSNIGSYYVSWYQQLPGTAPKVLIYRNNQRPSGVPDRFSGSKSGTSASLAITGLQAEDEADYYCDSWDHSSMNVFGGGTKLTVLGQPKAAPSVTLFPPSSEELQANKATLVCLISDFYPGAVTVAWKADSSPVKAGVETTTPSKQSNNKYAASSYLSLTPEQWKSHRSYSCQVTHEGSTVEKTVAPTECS
notes: lambda 1 light chain
B2: MAB #1 (antibody, human IgG1, lambda)
heavy: B1 heavy with V54K, H103F
light: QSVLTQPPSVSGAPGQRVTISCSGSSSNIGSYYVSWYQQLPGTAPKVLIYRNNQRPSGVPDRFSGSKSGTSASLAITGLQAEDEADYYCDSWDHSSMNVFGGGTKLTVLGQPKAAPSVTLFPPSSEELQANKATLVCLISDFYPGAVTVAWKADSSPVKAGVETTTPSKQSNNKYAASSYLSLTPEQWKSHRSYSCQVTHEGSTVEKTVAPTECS
notes: lambda 1 light chain, VH3-15 framework

Key:
[1] = target: T1, cynomolgus C5aR_NT-bio peptide; experiment: BLI (Octet), apparent (bivalent)
[2] = target: T7, HIS6-mouse C5aR-HV1B1-GAG (mouse); experiment: ELISA on coated VLPs, IgG titration
T7 construct: negative control; also called murine C5aR on VLPs; mouse C5aR expressed on virus-like-particles

[3] = target: T2, full length human C5aR stably expressed …; experiment: FACS on Flp-In CHO cells, IgG titration
Description: (§1) The C5aR-CHO Flp-In™ cell lines were blocked and IgGs were added either in serial dilutions or at a single (high) concentration of 300 nM. For detection of IgG binding, an R-phycoerythrin (R-PE) conjugated anti-human IgG (Fc-gamma fragment specific)2 antibody was added and fluorescence was measured using the FACS Array or Novocyte device.

[4] = target: T3, full length cynomolgus C5aR stably …; experiment: FACS on Flp-In CHO cells, IgG titration
Description: as §1

[5] = target: T8, HIS6-human C5aR (D/K variant)-HV1B1-GAG (human); experiment: ELISA on coated VLPs, IgG titration (N = 2)
T8 construct: the VLPs were coated for ELISA; also called huC5aR (D/K); human C5aR D/K variant on VLPs

[6] = target: T9, HIS6-human C5aR (N/N variant)-HV1B1-GAG (human); experiment: ELISA on coated VLPs, IgG titration (N = 2)
T9 construct: also called huC5aR (N/N); human C5aR N/N variant on VLPs

[7] = target: T4, C5aR expressed on purified human …; experiment: FACS on purified human neutrophils, IgG titration
Description: Neutrophils were purified from EDTA-whole blood samples using a MACSexpress® Neutrophil Isolation Cocktail from Miltenyi Biotec. Briefly, using this kit, cells are isolated using magnetic labeling and negative magnetic separation. […] Measurements were done at the FACS Array device. FACS data were evaluated using FlowJo™, entered into GraphPad® Prism (v4.0) and fitted to the sigmoidal dose-response curve using non-linear regression to calculate the EC50.

[8] = target: T5, full-length human ChemR23 expressed on …; experiment: FACS, CHO Flp-In cells expressing human ChemR23, single IgG concentration
[9] = target: T6, human C5aR_NT-bio peptide; experiment: BLI (Octet HTX), biotinylated peptide on SA sensors, IgG as analyte, 1:1 fit, apparent (bivalent)
[10] = target: T10, Human FcRn p51 [1-297]/AviHis/p14 biotinylated (human, UniProt P55899 24-298; P16213 21-119); experiment: BLI (Octet HTX), biotinylated FcRn on SA sensors, IgG titrated, steady state fit, apparent KD, pH 6.0; * deviation from fit model; pH 6.0
T10 construct: Heterodimer of two polypeptides; UniProt P55899 (p51), P61769 (p14) printed
T10 sequence (P55899 other isoform, or with tags, fused parts or gaps limits assumed, chain 1 of 2): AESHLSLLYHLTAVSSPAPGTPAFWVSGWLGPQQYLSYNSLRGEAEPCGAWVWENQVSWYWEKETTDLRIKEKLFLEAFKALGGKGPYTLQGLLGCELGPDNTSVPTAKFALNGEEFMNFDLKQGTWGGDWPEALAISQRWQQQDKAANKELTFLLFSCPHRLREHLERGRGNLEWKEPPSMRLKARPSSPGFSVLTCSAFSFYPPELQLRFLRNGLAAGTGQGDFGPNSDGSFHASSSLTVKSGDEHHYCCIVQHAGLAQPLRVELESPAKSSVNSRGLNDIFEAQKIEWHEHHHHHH
T10 sequence (P16213 21-119 limits assumed, chain 2 of 2): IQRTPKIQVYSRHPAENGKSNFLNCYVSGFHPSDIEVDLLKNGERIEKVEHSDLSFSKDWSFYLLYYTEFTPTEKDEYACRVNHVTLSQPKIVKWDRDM
Excerpt: (§2) 0.5 nm of biotinylated human, cynomolgus, mouse and rat FcRn were captured on streptavidin (SA) sensors (FortéBIO, Pall Life Sciences). […] All sensorgrams were fitted using Data Analysis Software 10.0 (FortéBIO, Pall Life Sciences) to determine the apparent affinity and the data was fitted with a steady state model.

[11] = target: T4, C5aR expressed on purified human …; experiment: cell-based or functional assay
[12] = target: T2, full length human C5aR stably expressed …; experiment: KinExA, MAB #1 as analyte, Flp-In CHO cells as titrant, apparent (bivalent) KD, n-curve analysis
Description: (§3) Apparent KD determination on C5aR-expressing cells was performed at RT with a KinExA® 3200 instrument (Sapidyne Instruments). PBS (Gibco), supplemented with BSA (1 mg/mL) and 0.02% (v/v) NaN₃ was used as assay buffer. […] After equilibration, the samples were centrifuged and the supernatants were used for analysis. […] The apparent KD was obtained using KinExA® software and by “n-curve analysis,” which fits all of the given curves to a single KD value simultaneously.

[13] = target: T3, full length cynomolgus C5aR stably …; experiment: as above
Description: as §3

[14] = target: T11, Cynomolgus FcRn p51 [1-297]_AviHis/p14 biotinylated (cynomolgus monkey, UniProt Q8SPV9 24-298; Q6T672 21-119, biotinylated in vitro with BirA (Avi tag)); experiment: BLI (Octet HTX), biotinylated FcRn on SA sensors, IgG titrated, steady state fit, apparent KD, pH 7.2; ** slight binding at pH 7.2
T11 construct: Heterodimer; UniProt Q8SPV9 (p51)
Excerpt: as §2

Binder	fold weaker binding than to the human C5aR peptide [1] [fold]	binding result [2]	EC50 [3] [nM]	EC50 [4] [nM]	EC50 [5] [nM]	EC50 [6] [nM]	EC50 [7] [nM]	binding result [8]	Kd [9] [nM]	koff [9] [s⁻¹]	kon [9] [M⁻¹ s⁻¹]	Kd [10] [nM]	Inhibition of CD11b expression, granulocytes in whole blood, 15 nM C5a: IC50 [11] [nM]	Inhibition of CD11b expression, monocytes in whole blood, 15 nM C5a: IC50 [11] [nM]	Kd [12] [nM]	Kd [13] [nM]	Kd [14] [nM]
B1	~1000	no binding	1.2	1.4	0.5	0.5	5.4	no binding (tested: 300 nM)	0.29	0.000111	378000	36					
B2	~1000		1.7	1.1	0.5	0.5	6	no binding (tested: 300 nM)	0.02	9.99e-06	476000	9	9.8	4.2	0.13	2.98	560

From patent publication US20240400657A1 (MorphoSys, published 2024)
